Data as given in paper PMC10726160.

Molecular target: GW182 (TNRC6A), short isoform (mouse (endogenous in OT-I CD8+ T cells))
Experiment: co-IP; anti-GW182 antibody on Protein G Dynabeads; lysates of naive (d0) and d6 activated OT-I CD8+ T cells, 2 x 10^7 cells per IP; bound and unbound fractions blotted with Ago2 and GW182 antibodies

percent of Ago2 associated with immunoprecipitated GW182 (d6): 50%
Substance: Argonaute 2 (Ago2) (from UniProt Q8CJG0 1-860) (natural protein)
